According to patent publication US20240287172A1 (SCIRHOM, published 2024):
Where a chain is given by its changes, count along the chain named.

T1: human iRhom2, endogenously expressed (human, UniProt Q6PJF5 1-856)
T1 sequence: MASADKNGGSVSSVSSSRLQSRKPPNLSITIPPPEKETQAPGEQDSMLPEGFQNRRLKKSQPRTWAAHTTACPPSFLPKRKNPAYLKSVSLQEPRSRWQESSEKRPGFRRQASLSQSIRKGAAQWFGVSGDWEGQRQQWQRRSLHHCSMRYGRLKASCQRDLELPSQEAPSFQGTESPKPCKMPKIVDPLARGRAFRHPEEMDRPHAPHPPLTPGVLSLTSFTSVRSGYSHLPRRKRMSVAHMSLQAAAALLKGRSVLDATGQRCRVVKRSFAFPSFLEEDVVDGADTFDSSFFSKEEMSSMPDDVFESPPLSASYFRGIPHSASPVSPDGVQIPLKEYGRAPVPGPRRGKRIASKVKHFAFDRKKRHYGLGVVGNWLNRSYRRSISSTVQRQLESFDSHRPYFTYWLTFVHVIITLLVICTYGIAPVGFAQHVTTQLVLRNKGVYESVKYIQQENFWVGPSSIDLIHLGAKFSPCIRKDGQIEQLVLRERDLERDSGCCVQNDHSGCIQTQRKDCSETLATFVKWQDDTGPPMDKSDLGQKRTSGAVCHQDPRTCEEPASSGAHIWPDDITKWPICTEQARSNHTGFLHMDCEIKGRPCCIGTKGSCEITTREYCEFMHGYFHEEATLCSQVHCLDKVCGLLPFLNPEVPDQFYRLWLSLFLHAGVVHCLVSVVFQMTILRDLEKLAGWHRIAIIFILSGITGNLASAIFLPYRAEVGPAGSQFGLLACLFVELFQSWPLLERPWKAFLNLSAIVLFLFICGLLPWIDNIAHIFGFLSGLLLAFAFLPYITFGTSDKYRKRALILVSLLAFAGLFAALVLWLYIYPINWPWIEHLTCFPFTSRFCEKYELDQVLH

T2: dog iRhom2 full length wild type, T7-tagged (dog, UniProt Q00M95 1-827)
T2 construct: whole, on cells; on MEF-DKO cells; also called Dog-iR2-FL-WT-T7
T2 sequence: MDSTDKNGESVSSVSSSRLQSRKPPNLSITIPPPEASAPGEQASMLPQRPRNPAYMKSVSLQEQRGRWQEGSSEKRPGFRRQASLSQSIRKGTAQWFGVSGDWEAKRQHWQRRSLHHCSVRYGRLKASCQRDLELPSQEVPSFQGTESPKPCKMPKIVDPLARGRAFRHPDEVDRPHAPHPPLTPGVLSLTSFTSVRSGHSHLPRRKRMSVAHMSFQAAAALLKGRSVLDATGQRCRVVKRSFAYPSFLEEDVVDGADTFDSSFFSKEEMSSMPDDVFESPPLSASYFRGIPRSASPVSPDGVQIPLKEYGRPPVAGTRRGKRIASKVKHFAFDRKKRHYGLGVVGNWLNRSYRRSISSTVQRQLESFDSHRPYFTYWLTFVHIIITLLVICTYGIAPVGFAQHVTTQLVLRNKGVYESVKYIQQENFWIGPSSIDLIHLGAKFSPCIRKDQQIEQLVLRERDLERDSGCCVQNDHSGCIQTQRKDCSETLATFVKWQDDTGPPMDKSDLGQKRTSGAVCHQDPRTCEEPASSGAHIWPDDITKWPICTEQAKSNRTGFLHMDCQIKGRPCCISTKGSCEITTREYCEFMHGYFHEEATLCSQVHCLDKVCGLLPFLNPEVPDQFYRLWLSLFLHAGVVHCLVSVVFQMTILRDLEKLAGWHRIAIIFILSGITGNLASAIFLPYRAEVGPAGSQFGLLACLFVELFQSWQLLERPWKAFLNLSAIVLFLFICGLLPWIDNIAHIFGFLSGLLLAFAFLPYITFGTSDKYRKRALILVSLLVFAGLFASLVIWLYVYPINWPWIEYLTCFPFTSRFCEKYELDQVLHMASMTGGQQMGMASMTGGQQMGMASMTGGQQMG

T3: human iRhom1, endogenously expressed (human, UniProt Q96CC6 1-855)
T3 construct: also called iRhom1 on RH-30 cells
T3 sequence: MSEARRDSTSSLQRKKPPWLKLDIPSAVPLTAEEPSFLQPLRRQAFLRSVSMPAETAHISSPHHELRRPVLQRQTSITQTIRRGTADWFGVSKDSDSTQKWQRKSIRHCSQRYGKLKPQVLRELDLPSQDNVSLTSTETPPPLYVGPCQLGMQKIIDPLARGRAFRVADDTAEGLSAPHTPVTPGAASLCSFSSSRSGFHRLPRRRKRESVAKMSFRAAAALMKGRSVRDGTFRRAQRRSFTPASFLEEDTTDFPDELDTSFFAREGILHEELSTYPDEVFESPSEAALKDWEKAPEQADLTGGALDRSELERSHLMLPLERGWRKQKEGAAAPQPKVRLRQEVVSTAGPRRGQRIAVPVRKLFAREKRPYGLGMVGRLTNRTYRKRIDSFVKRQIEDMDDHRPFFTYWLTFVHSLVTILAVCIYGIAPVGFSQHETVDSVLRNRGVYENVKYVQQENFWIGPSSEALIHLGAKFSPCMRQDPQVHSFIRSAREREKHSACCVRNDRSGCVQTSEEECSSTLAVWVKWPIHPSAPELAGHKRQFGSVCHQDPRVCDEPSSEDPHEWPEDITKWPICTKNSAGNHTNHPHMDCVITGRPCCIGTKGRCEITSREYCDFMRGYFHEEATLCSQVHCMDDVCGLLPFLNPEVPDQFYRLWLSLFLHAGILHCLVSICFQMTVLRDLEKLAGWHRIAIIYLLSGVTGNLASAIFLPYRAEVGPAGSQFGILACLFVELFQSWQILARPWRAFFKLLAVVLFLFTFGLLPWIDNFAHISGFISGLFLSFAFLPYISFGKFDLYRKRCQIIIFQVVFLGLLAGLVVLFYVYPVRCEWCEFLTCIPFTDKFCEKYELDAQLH

B1: chimeric antibody 22 (antibody, V domains shown)
VH: QVTLKESGPGILQPSQTLSLTCSFSGFSLSTFGMGVGWIRQPSGKGLEWLAHIWWDDEKYYNSALKSRLTISKATSKNQVFLKIANVDTADTATYYCARISNYGSNYWYFNVWGTGTTVTVSS
VL: QVVLTQSPALMSASPGEKVTMTCSAGSSVSYMYWYQQKPGSSPRVLIYDTSNLASGVPARFTGSGSGTSYSLTISRMEAEDAATYYCQQWNSYPLTFGAGTKLELK
B2: chimeric antibody 44 (antibody, V domains shown)
VH: B1 VH with G44E, E58D, S63P, A74D, V80I, A85T, D91E, A98S, S101G, N111D
VL: B1 VL with V2I, L10V, S24T, G26S, S30Y, K38T, V45L, A59V, T62S, S92T
B3: chimeric antibody 42 (antibody, V domains shown)
VH: B1 VH with F24L, M34R, S63P, A74D, K83R, S101Q, N111D
VL: LIVLTQSPAIMSASPGEKVTMTCGATSRISYMFWYQQKPGSSPRVLIYDTSNLASGVPVRFSGSGSGTSYSLTISRVEAEDVATYYCQQWNSYPLTFGAGTKLELK
B4: chimeric antibody 16 (antibody, V domains shown)
VH: QVTLKESGPGILQPSQTLSLTCSFSGFSLSTFALGVGWIRQPSGRGLEWLAHIWWDDDKYYNPALKSRLTISKDTSKNHVFLKIANVDTADTATYYCARITTYYYGMDYWGQGTSVTVSS
VL: DIVLSQSPATLSVTPGDSVSLFCRASQSIGNHLHWYQQESHASPRLLIKYASQSISGIPSRFSGSGSGTDFTLSINSVETEDFGMYFCQQSYNWPLTFGAGTKLELK
notes: chimeric version of clone #16, made in CHO cells, detected with anti-human IgG; also called ch16; chl6 (so in the source)
B5: chimeric antibody 34 (antibody, V domains shown)
VH: QVTLKESGPGILQPSQTLSLTCSFSGFSLSTFSLGVGWIRQSSGKGLEWLAHIWWDDEKYYNPALKSRLTISKDTSKNQVFLKIANVDAADTATYYCARAYYSKSYYALDYWGQGTSVTVSS
VL: DIQMTQSPSSLSASLGERVSLTCRASQEISGYLSWLQQKPDGTIKRLIYAASTLDSGVPKRFSGSRSGSDYSLAISSLESEDFADYYCLQYANFPFTFGSGTKLEIK

Legend:
[1] = molecular target: T1, human iRhom2, endogenously expressed; test: cell-based or functional assay
[2] = molecular target: T2, dog iRhom2 full length wild type, …; test: FACS on MEF-DKO-iR2 Dog cells, 3 µg/ml
Description: In brief, immortalized MEF-DKO-EV control cells, MEF-DKO-rhesus-iR2-FL-WT-T7 cells, MEF-DKO-cyno-iR2-FL-WT-T7 cells, MEF-DKO-dog-iR2-FL-WT-T7 cells and MEF-DKO-rabbit-iR2-FL-WT-T7 cells, as well as their respective iRhom1 counterparts, were harvested with 10 mM EDTA in PBS, washed and resuspended in FACS buffer (PBS, 3% FBS, 0.05% sodium azide), and seeded in Nunc U-bottom 96-well plates (Thermo Fisher Scientific, USA) at approximately 3×10⁵ cells per well. To pellet cells and remove supernatants, the plates were centrifuged at 1,500 rpm and 4° C. for 3 minutes. For primary staining, cells were resuspended in 100 μl per well of either FACS buffer alone (controls), mouse monoclonal anti-T7 IgG (Merck Millipore, USA) at 3 μg/ml FACS buffer or the antibodies of the invention also at 3 μg/ml FACS buffer and incubated on ice for 1 hour.
Afterwards, plates were centrifuged at 1,500 rpm and 4° C. for 3 minutes and washed twice with 200 μl per well of FACS buffer. For secondary staining, cells were spun down and resuspended in 100 μl per well of PE-conjugated goat anti-mouse IgG F(ab′)2 detection fragment (Dianova, Germany) diluted 1:100 in FACS buffer. Protected from light, the cell suspensions were incubated on ice for 1 hour. […] Finally, cells were resuspended in 150 μl per well of FACS buffer and analyzed using a BD Accuri™ C6 Plus flow cytometer (Becton Dickinson, Germany).

[3] = molecular target: T3, human iRhom1, endogenously expressed; test: FACS on RH-30 cells (iRhom1-positive, not iRhom2-positive)

Binder | LPS-induced TNFα release from PBMCs of rheumatoid arthritis patients, percent inhibition, 1 µg/ml, chimeric antibody [1] | PMA-induced HB-EGF release from PBMCs of rheumatoid arthritis patients, percent inhibition, 1 µg/ml, chimeric antibody [1] | PMA-induced HB-EGF release from THP-1 cells, percent inhibition, 3 µg/ml [1] | PMA-induced HB-EGF release from U-937 cells, percent inhibition [1] | PMA-induced IL-6R release from PBMCs of rheumatoid arthritis patients, percent inhibition, 1 µg/ml, chimeric antibody [1] | PMA-induced IL-6R release from U-937 cells, percent inhibition, 3 µg/ml [1] | PMA-induced TNFα release from U-937 cells, percent inhibition, 3 µg/ml [1] | binding result [2] | binding result [3]
B1 | 76.5% | 54.7% | 81.9% | 103% | 61.1% | 85.6% | 96.5% |  | 
B2 | 70.2% | 37.8% | 70.7% | 99.2% | 53.1% | 85.2% | 89.2% |  | 
B3 | 82.1% | 76.1% | 80.8% | 103% | 73.5% | 91.8% | 96.5% |  | 
B4 | 83.6% | 66% | 73.6% | 101% | 72.3% | 84.3% | 93.7% | binds | no binding (tested: 3 µg/ml)
B5 | 66.6% | 30.6% | 76.1% | 98.1% | 45.6% | 82.8% | 87.4% |  | 
